Data from PMC10041117.

B1: mTFP-C0C2 (C0C2 of cMyBP-C conjugated to mTFP at its N terminus) (domain or fragment)
chain: MPEPGKRPVSAFTKKPRSVEVTAGSAAVFEAETERSGLKVQWQRDGSDIAANDKYGLAAEGKRHTLTVRDVGPDDQGSYAVIAGSSKVKFDLKVTEPAPPEKAESAVAPTSMEAPETPKEVPALATQLEGNVSSPEGSVSVTQDGSVAGSQGAPDDPIGLFLMRPQDGEVTVGGSIVFSARVAGASLLKPPVVKWFKGKWVDLSSKVGQHLQLHDSYDRASKVYLFELHITDAQATSAGGYRCEVSTKDKFDSCNFNLTVHEAIGSGDLDLRSAFRRTSLAGTGRRTSDSHEDAGTLDFSSLLKKSSFRRDSKLEAPAEEDVWEILRQAPPSEYERIAFQHGVTDLRGMLKRLKGMKHDEKKSTAFQKKLEPAYQVNKGHKIRLTVELADPDAEVKWLKNGQEIQMSGRYIFESIGAKRTLTISQCSLADDAAYQCVVGGEKCSTELFVKEP
modifications: not checked
B2: N-terminal fragment of cMyBP-C containing domains C0 through C2 (C0C2), wild type (domain or fragment)
chain: B1 chain
modifications: not checked

Experiments:
[1] = target: myosin S2Δ (fragment of the S2 region of myosin consisting of its first 128 residues); assay: MST; C0C2 constructs binding to myosin S2Δ; as in refs 15 and 25
Sequence of myosin S2Δ (fragment of the S2 region of myosin consisting of its first 128 residues) (P12883 838-965, stated change not applied): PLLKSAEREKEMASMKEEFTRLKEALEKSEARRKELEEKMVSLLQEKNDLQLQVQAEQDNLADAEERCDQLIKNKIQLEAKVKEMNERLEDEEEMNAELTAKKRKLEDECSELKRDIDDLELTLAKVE

[2] = target: isolated bovine native thin filaments (NTFs) (bovine), Q3ZC07; assay: co-sedimentation; C0C2 constructs cosedimented with isolated bovine native thin filaments (NTFs); as in ref. 15

Binder | Kd [1] [µM] | Kd [2] [µM]
B1 | 35 | 18
B2 | 20 | 42
